These results are taken from patent US20250186614A1, “COMPACT DRUG RESPONSIVE DOMAINS FOR REGULATION OF FUNCTION/ABUNDANCE AND DELIVERY OF POLYPEPTIDE PAYLOADS” (OBSIDIAN THERAPEUTICS, INC., priority 2022, published 2025).

The chains are these.
B1: FKBP-121: FKBP13 DRD Q72R, Q84E, A117W, I136V; SEQ ID NO: 71 (protein)
chain: HCPIKSRKGDVLHMHYTGKLEDGTEFDSSLPRNQPFVFSLGTGEVIKGWDQGLLGMCEGEKRKLVIPSELGYGERGWPPKIPGGATLVFEVELLKVER
modifications: Description of sequence: FKBP13-AcGFP-mCherry Fusion; Construct Name: FKBP-121; FKBP13 DRD in Construct : FKBP13 (mutated to match FKBP12 active site Q72R Q84E A117W) (DRD I136V)
B2: FKBP-123: FKBP13 DRD Q72R, Q84E, A117W, G49S; SEQ ID NO: 73 (protein)
chain: HCPIKSRKSDVLHMHYTGKLEDGTEFDSSLPRNQPFVFSLGTGEVIKGWDQGLLGMCEGEKRKLVIPSELGYGERGWPPKIPGGATLVFEVELLKIER
modifications: Description of sequence: FKBP13-AcGFP-mCherry Fusion; Construct Name: FKBP-123; FKBP13 DRD in Construct : FKBP13 (mutated to match FKBP12 active site Q72R Q84E A117W) (DRD G49S)
B3: FKBP-128: FKBP13 DRD Q72R, Q84E, A117W, H53L; SEQ ID NO: 78 (protein)
chain: HCPIKSRKGDVLLMHYTGKLEDGTEFDSSLPRNQPFVFSLGTGEVIKGWDQGLLGMCEGEKRKLVIPSELGYGERGWPPKIPGGATLVFEVELLKIER
modifications: Description of sequence: FKBP13-AcGFP-mCherry Fusion; Construct Name: FKBP-128; FKBP13 DRD in Construct : FKBP13 (mutated to match FKBP12 active site Q72R Q84E A117W) (DRD H53L)
B4: FKBP-124: FKBP13 DRD Q72R, Q84E, A117H, G49S; SEQ ID NO: 74 (protein)
chain: HCPIKSRKSDVLHMHYTGKLEDGTEFDSSLPRNQPFVFSLGTGEVIKGWDQGLLGMCEGEKRKLVIPSELGYGERGHPPKIPGGATLVFEVELLKIER
modifications: Description of sequence: FKBP13-AcGFP-mCherry Fusion; Construct Name: FKBP-124; FKBP13 DRD in Construct : FKBP13 (mutated to match FKBP12 active site Q72R Q84E A117H) (DRD G49S)
B5: FKBP-129: FKBP13 DRD Q72R, Q84E, A117W, E98L; SEQ ID NO: 79 (protein)
chain: HCPIKSRKGDVLHMHYTGKLEDGTEFDSSLPRNQPFVFSLGTGEVIKGWDQGLLGMCLGEKRKLVIPSELGYGERGWPPKIPGGATLVFEVELLKIER
modifications: Description of sequence: FKBP13-AcGFP-mCherry Fusion; Construct Name: FKBP-129; FKBP13 DRD in Construct : FKBP13 (mutated to match FKBP12 active site Q72R Q84E A117W) (DRD E98L)
B6: FKBP-126: FKBP13 DRD Q72R, Q84E, A117H, D62S; SEQ ID NO: 76 (protein)
chain: HCPIKSRKGDVLHMHYTGKLESGTEFDSSLPRNQPFVFSLGTGEVIKGWDQGLLGMCEGEKRKLVIPSELGYGERGHPPKIPGGATLVFEVELLKIER
modifications: Description of sequence: FKBP13-AcGFP-mCherry Fusion; Construct Name: FKBP-126; FKBP13 DRD in Construct : FKBP13 (mutated to match FKBP12 active site Q72R Q84E A117H) (DRD D62S)
B7: FKBP-131: FKBP13 DRD Q72R, Q84E, A117W, T126C; SEQ ID NO: 81 (protein)
chain: HCPIKSRKGDVLHMHYTGKLEDGTEFDSSLPRNQPFVFSLGTGEVIKGWDQGLLGMCEGEKRKLVIPSELGYGERGWPPKIPGGACLVFEVELLKIER
modifications: Description of sequence: FKBP13-AcGFP-mCherry Fusion; Construct Name: FKBP-131; FKBP13 DRD in Construct : FKBP13 (mutated to match FKBP12 active site Q72R Q84E A117W) (DRD T126C)
B8: FKBP-127: FKBP13 DRD Q72R, Q84E, A117W, F76Q; SEQ ID NO: 77 (protein)
chain: HCPIKSRKGDVLHMHYTGKLEDGTEFDSSLPRNQPQVFSLGTGEVIKGWDQGLLGMCEGEKRKLVIPSELGYGERGWPPKIPGGATLVFEVELLKIER
modifications: Description of sequence: FKBP13-AcGFP-mCherry Fusion; Construct Name: FKBP-127; FKBP13 DRD in Construct : FKBP13 (mutated to match FKBP12 active site Q72R Q84E A117W) (DRD F76Q)
B9: FKBP-125: FKBP13 DRD Q72R, Q84E, A117W, D62S; SEQ ID NO: 75 (protein)
chain: HCPIKSRKGDVLHMHYTGKLESGTEFDSSLPRNQPFVFSLGTGEVIKGWDQGLLGMCEGEKRKLVIPSELGYGERGWPPKIPGGATLVFEVELLKIER
modifications: Description of sequence: FKBP13-AcGFP-mCherry Fusion; Construct Name: FKBP-125; FKBP13 DRD in Construct : FKBP13 (mutated to match FKBP12 active site Q72R Q84E A117W) (DRD D62S)
B10: FKBP-122: FKBP13 DRD Q72R, Q84E, A117H, I136V; SEQ ID NO: 72 (protein)
chain: HCPIKSRKGDVLHMHYTGKLEDGTEFDSSLPRNQPFVFSLGTGEVIKGWDQGLLGMCEGEKRKLVIPSELGYGERGHPPKIPGGATLVFEVELLKVER
modifications: Description of sequence: FKBP13-AcGFP-mCherry Fusion; Construct Name: FKBP-122; FKBP13 DRD in Construct : FKBP13 (mutated to match FKBP12 active site Q72R Q84E A117H) (DRD I136V)
B11: FKBP-130: FKBP13 DRD Q72R, Q84E, A117W, P107K; SEQ ID NO: 80 (protein)
chain: HCPIKSRKGDVLHMHYTGKLEDGTEFDSSLPRNQPFVFSLGTGEVIKGWDQGLLGMCEGEKRKLVIKSELGYGERGWPPKIPGGATLVFEVELLKIER
modifications: Description of sequence: FKBP13-AcGFP-mCherry Fusion; Construct Name: FKBP-130; FKBP13 DRD in Construct : FKBP13 (mutated to match FKBP12 active site Q72R Q84E A117W) (DRD P107K)

This assay has as its system Jurkat cells. Briefly: Tacrolimus dose response of FKBP13-AcGFP-mCherry constructs stably transduced into Jurkat cells, GFP MFI by flow cytometry. In kind it is cell-based. To be noted: tacrolimus, Jurkat cells stably transduced; Table 6. Here is the method:
The regulation of AcGFP, from FKBP13-AcGFP-mCherry constructs, in Jurkat cells, was also studied. Jurkat Clone E6-1 cells were cultured in standard media (RPMI+GlutaMAX Supplement (Life Technologies, Carlsbad, CA Cat #61870127), Fetal Bovine Serum (FBS) (Life Technologies Cat #10-082-147)). Jurkat cells were transduced with lentivirus produced with each of FKBP-039, FKBP-040, FKBP-041, FKBP-042, FKBP-043, FKBP-044, or FKBP-045 constructs. Jurkat cells were transduced until they were 10-25% positive, as determined on day 5 post-transduction, by using mCherry as a transduction marker. […] The Geometric Mean Fluorescent Intensity (MFI) of GFP expression in mCherry+ cells was plotted and dose response curve fits were performed using Prism Software (San Diego, CA).
FKBP-091 was used as a comparative construct.
FIGS. 22-38 show the results of characterization of FKBP-160-292. […] FKBP-091 and FKBP-117 was used as a comparative control for FKBP-160-FKBP-255. FKBP-195 was used as a comparative control for FKBP-256-FKBP-275. FKBP-117, FPBP-195 and FKBP-251 were used as a comparative control for FKBP-276-FKBP-292.
FKBP mutants were cloned in a manner to make a fusion protein with AcGFP in order to assess FKBP mutant regulation by using AcGFP expression as a readout. […] Further iterative FKBP mutants (FKBP-256-FKBP-292) were constructed from these initial combinatorial mutants to see if we could further improve FKBP DRD properties.
For B1, the “Fold Change” value stood at 28.35. Consider B2, for which the “Fold Change” value came out at 48.38. Next, B3: 31.75; B4: 40.13; B5: 17.11.

Take B6: the “Fold Change” value worked out at 25.70. As for B7, the figure is 21.30; as for B8, 10.25. B9: the “Fold Change” value was determined as 29.07. As to B10, the “Fold Change” value amounted to 22.51.

Take B11: the “Fold Change” value is recorded as 14.40.
